Experimental findings from doi:10.1101/2024.12.02.626349 are described below.

This assay deals with endogenous UBR4 tagged with FLAG at the UBR4 locus (human (endogenous in HEK293T)) (UniProt Q5T4S7). The assay can be described thus: cryo-EM structure.

endogenous UBR4 tagged with FLAG at the UBR4 locus, sequence (Q5T4S7 whole entry): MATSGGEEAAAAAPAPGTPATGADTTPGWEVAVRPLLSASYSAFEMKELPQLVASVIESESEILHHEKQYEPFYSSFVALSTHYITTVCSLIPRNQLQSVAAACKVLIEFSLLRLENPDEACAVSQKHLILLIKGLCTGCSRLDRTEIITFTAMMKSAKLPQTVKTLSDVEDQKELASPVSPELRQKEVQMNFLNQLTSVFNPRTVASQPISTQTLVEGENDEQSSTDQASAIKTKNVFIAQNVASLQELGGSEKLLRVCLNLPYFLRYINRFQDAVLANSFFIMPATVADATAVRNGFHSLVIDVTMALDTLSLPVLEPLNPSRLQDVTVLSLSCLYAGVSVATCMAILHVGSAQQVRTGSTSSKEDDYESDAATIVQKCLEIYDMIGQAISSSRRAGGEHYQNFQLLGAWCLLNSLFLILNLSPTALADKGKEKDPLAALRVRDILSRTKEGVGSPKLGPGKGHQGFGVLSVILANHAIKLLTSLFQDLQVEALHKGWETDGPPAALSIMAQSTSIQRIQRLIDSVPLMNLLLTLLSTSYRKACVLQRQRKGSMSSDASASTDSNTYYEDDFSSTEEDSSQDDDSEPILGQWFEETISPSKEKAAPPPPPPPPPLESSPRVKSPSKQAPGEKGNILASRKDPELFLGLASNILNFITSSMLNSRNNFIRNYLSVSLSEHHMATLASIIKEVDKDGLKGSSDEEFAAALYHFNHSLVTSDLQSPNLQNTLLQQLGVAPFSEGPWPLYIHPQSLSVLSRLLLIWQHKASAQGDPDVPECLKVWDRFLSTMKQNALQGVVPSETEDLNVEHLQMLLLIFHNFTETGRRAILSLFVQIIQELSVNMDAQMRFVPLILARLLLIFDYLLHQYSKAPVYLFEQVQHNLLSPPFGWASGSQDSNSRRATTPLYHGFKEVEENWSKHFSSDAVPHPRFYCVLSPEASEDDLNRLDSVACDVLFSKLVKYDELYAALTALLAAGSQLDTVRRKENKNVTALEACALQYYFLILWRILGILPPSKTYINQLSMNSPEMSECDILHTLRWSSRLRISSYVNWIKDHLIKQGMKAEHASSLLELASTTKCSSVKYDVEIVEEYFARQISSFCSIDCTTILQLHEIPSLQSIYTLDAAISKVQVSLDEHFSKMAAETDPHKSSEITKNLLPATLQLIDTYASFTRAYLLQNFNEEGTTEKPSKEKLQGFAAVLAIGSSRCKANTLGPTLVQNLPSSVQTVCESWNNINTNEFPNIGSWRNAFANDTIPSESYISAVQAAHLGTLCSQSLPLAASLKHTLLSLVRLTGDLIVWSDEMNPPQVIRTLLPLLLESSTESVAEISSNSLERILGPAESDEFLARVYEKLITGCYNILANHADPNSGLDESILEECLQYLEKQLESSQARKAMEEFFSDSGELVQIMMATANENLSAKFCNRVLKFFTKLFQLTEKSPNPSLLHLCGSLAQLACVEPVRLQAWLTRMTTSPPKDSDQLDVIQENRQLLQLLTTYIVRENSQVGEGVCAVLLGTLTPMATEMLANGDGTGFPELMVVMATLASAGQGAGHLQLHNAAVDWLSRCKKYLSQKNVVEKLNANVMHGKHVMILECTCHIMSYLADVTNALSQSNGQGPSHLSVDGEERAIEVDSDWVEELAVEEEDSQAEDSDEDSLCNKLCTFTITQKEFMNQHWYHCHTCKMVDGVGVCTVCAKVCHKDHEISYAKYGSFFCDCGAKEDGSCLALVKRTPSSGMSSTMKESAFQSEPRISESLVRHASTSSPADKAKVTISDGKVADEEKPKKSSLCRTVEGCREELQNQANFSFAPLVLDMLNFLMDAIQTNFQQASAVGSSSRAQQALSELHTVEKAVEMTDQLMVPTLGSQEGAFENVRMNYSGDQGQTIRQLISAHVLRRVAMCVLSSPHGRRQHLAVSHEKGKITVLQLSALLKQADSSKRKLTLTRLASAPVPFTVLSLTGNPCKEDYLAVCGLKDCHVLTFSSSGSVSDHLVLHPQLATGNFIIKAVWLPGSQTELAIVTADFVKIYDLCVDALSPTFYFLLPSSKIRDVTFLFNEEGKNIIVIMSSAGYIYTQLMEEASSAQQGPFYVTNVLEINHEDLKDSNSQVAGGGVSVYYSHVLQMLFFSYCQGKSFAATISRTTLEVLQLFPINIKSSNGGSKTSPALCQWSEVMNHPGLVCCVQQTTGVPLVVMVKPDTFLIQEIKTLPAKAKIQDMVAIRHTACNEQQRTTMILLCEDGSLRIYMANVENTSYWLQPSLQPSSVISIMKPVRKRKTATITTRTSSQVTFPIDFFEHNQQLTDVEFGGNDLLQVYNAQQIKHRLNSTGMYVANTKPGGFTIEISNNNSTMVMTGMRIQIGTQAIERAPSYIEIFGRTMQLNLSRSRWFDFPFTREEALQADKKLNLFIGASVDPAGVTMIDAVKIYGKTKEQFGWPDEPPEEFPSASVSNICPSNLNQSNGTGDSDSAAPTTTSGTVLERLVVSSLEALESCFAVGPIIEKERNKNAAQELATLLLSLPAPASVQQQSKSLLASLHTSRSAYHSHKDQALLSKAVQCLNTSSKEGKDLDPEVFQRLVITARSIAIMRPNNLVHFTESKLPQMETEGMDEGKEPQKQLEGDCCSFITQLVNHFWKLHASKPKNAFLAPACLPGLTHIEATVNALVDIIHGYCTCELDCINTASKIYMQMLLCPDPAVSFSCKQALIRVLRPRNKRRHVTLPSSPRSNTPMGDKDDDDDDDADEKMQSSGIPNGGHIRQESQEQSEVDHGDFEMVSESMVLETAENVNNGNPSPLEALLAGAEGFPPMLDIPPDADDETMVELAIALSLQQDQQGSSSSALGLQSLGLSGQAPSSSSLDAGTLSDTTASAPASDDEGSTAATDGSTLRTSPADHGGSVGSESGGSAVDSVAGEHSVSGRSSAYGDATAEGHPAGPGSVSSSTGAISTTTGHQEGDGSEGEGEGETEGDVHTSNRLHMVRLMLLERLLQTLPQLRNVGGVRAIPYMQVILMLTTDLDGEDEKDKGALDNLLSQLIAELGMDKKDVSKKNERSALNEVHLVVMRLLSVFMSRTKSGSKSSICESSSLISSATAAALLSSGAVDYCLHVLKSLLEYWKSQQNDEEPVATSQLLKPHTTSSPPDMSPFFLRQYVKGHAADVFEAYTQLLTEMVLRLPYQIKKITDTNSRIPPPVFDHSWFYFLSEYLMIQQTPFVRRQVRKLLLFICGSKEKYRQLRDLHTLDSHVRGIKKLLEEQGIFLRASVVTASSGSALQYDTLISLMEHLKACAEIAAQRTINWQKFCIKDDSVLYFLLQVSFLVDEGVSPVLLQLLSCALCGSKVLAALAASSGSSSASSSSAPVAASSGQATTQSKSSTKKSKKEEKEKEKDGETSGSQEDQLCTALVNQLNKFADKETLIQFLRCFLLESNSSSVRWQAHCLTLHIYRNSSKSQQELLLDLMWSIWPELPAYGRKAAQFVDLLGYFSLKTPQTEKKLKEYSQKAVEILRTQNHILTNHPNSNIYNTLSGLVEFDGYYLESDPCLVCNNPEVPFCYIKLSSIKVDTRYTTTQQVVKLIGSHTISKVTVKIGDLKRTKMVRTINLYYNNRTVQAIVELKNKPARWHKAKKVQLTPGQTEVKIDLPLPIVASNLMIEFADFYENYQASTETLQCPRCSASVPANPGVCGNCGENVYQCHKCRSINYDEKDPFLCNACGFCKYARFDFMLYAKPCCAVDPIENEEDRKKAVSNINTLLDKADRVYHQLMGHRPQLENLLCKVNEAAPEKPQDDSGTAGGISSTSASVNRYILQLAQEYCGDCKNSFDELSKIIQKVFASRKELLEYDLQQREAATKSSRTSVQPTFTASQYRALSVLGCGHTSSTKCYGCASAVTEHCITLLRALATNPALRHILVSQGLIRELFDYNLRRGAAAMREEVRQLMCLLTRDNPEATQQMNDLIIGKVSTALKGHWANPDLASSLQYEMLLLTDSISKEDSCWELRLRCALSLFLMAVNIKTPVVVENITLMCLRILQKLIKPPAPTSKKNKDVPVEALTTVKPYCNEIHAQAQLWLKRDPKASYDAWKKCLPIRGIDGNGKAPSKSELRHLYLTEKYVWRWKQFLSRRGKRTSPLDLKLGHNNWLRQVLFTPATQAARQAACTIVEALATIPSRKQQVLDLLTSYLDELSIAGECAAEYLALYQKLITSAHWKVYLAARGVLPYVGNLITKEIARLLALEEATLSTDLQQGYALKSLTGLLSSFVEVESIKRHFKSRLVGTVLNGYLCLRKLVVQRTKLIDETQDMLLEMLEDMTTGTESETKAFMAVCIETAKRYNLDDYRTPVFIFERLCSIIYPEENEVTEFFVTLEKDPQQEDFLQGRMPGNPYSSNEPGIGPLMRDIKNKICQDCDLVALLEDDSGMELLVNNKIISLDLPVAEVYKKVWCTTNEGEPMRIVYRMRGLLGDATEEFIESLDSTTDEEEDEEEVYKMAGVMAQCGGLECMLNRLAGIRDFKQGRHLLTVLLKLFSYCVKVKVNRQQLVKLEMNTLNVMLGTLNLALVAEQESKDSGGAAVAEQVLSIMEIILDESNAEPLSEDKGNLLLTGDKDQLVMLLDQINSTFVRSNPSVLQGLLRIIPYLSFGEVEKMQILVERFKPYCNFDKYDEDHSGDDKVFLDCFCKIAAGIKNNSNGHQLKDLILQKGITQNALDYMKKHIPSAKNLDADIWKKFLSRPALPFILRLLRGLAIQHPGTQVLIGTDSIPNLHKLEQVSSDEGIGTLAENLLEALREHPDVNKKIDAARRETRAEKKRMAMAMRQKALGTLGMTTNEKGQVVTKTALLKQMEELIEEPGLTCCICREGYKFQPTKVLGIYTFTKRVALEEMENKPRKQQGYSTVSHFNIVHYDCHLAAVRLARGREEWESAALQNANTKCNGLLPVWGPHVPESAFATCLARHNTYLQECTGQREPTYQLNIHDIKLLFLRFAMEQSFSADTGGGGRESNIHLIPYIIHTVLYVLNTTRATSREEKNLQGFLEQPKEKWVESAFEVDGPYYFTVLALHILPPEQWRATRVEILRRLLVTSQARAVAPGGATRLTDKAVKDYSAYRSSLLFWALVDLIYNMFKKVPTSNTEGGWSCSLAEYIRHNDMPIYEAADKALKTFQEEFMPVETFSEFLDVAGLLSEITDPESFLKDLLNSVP

By stoichiometry N is commonly meant a count of units in the complex or per binding partner. As for “endogenous UBR4 tagged with FLAG at the UBR4 locus (from UniProt Q5T4S7-1 1-5183) (natural protein)”, the stoichiometry N was 2.
